Measurements: the supplement of paper PMC10567573
± gives the standard deviation.

Assay: protein stability index of a GFP-peptide fusion (GPS, HEK-293T) (PSI 1-6); higher = more stable
[1] = treatment: DMSO, c terminus: a fixed tail appended
[2] = treatment: MLN4924 1 uM, 8 h, c terminus: a fixed tail appended
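Further: 24-mer peptide tiles fused after GFP, lentivirally expressed, FACS-sorted into six equal bins by GFP/DsRed ratio, decoded by Illumina sequencing, PSI is the read-weighted mean bin number.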

Sequence | protein stability index [1] | protein stability index [2] | protein stability index (treatment: DMSO, c terminus: native) | protein stability index (treatment: MLN4924 1 uM, 8 h, c terminus: native)
KDVRAPSRPAVGPPQPGCPAFIIV [ZSWIM9] | 2.23 ± 0.75 | 2.43 ± 0.6 | – | –
KEEEQSCEYETRLPGNHSTSQEIF [ZNF232] | 5.02 ± 0.3 | 5 ± 0.13 | – | –
KEEGTVNGASWHTVAGSLNDFSYL [CPXM2] | 3.35 ± 0.53 | 3.33 ± 0.34 | – | –
KEGPMIHSGSVVGAGLPQFQSISL [CLCN6] | 2.91 ± 0.12 | 2.86 ± 0.35 | – | –
KEHAVTMPCTWVMACAYAPSGCAI [GNB5] | 2.8 ± 0.36 | 2.49 ± 0.59 | – | –
KENQDIRLLQAQLQAQKEELQSLM [PBXIP1] | 4.05 ± 0.12 | 4.14 ± 0.22 | – | –
KEQAIWKHPQPAPAVTPDPWGVQG [PKD2L1] | 3.75 ± 0.22 | 4.07 ± 0.31 | – | –
KGCLKLCRRCYDWIHRPGCRCKNS [SPRY1] | 3.04 ± 0.2 | 3.46 ± 0.2 | – | –
KGGLVWDENSSDGRYVKENCKPLK [CLK3] | 4.53 ± 0.098 | 4.82 ± 0.12 | – | –
KGKYNISSEDYRQLELVILQSEPH [KCNK9] | 2.87 ± 0.28 | 2.93 ± 0.29 | – | –
KHFLEAIENNKYGWFWVCPGGGDI [ZC3H15] | 2.8 ± 0.4 | 2.43 ± 0.39 | – | –
KIWRTPNGKTIEMDTQFTIRAREL [IQUB] | 2.55 ± 0.24 | 2.66 ± 0.19 | – | –
KKEQRRLGIPKNPWLWSEQQVCQW [ETS2] | 2.12 ± 0.18 | 2.43 ± 0.43 | – | –
KKPPEESTCFERPCFKWYTSPWSE [ADAMTSL2] | 2.67 ± 0.14 | 2.88 ± 0.42 | – | –
KKSELLQRITQEQEKKLSFIEALI [TRIM63] | 2.07 ± 0.3 | 2.41 ± 0.35 | – | –
KKTCRRINYCALNKPGCEHECVNM [MATN2] | 2.8 ± 0.38 | 2.95 ± 0.74 | – | –
KLEISTKEVPVVHTETKTITYESS [EPB41L3] | 4.83 ± 0.14 | 4.64 ± 1 | – | –
KLGLGIDEDEVAAEEPNAAVPDEI [HSP90AB1] | 5.8 ± 0.18 | 5.48 ± 0.24 | – | –
KLTDFGFAKKLVDRTWTLCGTPEY [PRKX] | 2.12 ± 0.11 | 2.27 ± 0.23 | – | –
KLTKESYPVVVAESMYGDFQEAMT [TENT5D] | 3.16 ± 0.2 | 3.41 ± 0.37 | – | –
KMAVSRHLTRGRKMAHVIAACLYL [BRF1] | 2.81 ± 0.37 | 2.6 ± 0.56 | – | –
KMKGFGFWPAKVMQKEDNQVDVRF [ZMYND11] | 3.11 ± 0.39 | 3.11 ± 0.34 | – | –

Sequence | protein stability index [1] | protein stability index [2] | protein stability index (treatment: DMSO, c terminus: native) | protein stability index (treatment: MLN4924 1 uM, 8 h, c terminus: native)
KMKKLGQAMEEDLIVGLQGMDLNL [HDAC6] | 3.86 ± 0.24 | 3.5 ± 0.43 | – | –
KMLGNPSRLPAKCPGKGAWSIPWK [FKBP8] | 2.08 ± 0.26 | 2.25 ± 0.23 | – | –
KMLSKAVDALKSDKKVRTIIIRSE [AUH] | 1.81 ± 0.26 | 2 ± 0.6 | – | –
KNANRPLLDEIVPVYRRDCHEEVY [ACBD3] | 3.88 ± 0.1 | 3.74 ± 0.15 | – | –
KNDGRIDAQEIMQSLRDLGVKISE [SLC25A25] | 3.19 ± 0.21 | 3.29 ± 0.27 | – | –
KNLLHAEFLRVQEERILHQQVKCI [VPS39] | 2.58 ± 0.16 | 2.71 ± 0.26 | – | –
KPEAPLHLPVTFPGKDYDADRQCQ [ADAMTS4] | 5.05 ± 0.15 | 5.13 ± 0.22 | – | –
KPFVSVFRHLRLQYIISDLASARI [GMCL1] | 3.07 ± 0.69 | 2.78 ± 0.85 | – | –
KPWDFPSVHNDLWESWFVPDPAGI [GLT8D2] | 2.96 ± 0.38 | 2.69 ± 0.16 | – | –
KPYDPPGEKMVAAKVKGEKLDKKL [ATF4] | 5.12 ± 0.21 | 5.12 ± 0.056 | – | –
KQTQCPADPLQLNKALSIILHLIC [FEM1C] | 1.91 ± 0.17 | 2.21 ± 0.39 | – | –
KRRPKAQPTTLVLPPQYVDDVISR [MED27] | 4.03 ± 0.12 | 4.06 ± 0.17 | – | –
KRVYEEFTKVVQPQEEIATKKLRL [INTS4] | 3.31 ± 0.33 | 3.86 ± 0.36 | – | –
KSIGSEPHEDHVFLVANFSQIETL [MATN2] | 2.92 ± 0.47 | 2.8 ± 0.25 | – | –
KSKTRSLLKRMESLKLKSSHHSKH [DLC1] | 3.48 ± 0.14 | 3.53 ± 0.16 | – | –
KSSSSSSSSSSSSSSSSSSSSSGP [TMEM40] | 5.29 ± 0.15 | 5.3 ± 0.1 | – | –
KSVLKSDEEHMEEAITSASFLEQI [FAM189A2] | 4.76 ± 0.31 | 4.85 ± 0.2 | – | –
KSVQHVVLQALFYLLDRAVDSFET [PTPN9] | 3.21 ± 0.38 | 2.58 ± 0.41 | – | –
KTTIPEEEEEEEEAAGVVVEEELF [LMNB1] | 5.55 ± 0.29 | 5.62 ± 0.2 | – | –
KTVDKHSDEYKIRRERNNIAVRKS [CEBPB] | 4.59 ± 0.17 | 4.79 ± 0.39 | – | –
KVQDALQNQSDSLLALAGAVQRLE [SCARA5] | 3.16 ± 0.24 | 3.29 ± 0.33 | – | –
KVVLIGDSGVGKSNLLSRFTRNEF [RAB11A] | 2.33 ± 0.19 | 2.28 ± 0.39 | – | –

Sequence | protein stability index [1] | protein stability index [2] | protein stability index (treatment: DMSO, c terminus: native) | protein stability index (treatment: MLN4924 1 uM, 8 h, c terminus: native)
KWLLWTEHQYRLPPMGKAFQELAG [SPDEF] | 2.44 ± 0.55 | 2.16 ± 0.48 | – | –
KYDMEVRVQKTSKELEDMNQKLFD [TNNI2] | 4.81 ± 0.13 | 4.73 ± 0.2 | – | –
LADKELVHMISWAKKIPGMRGNA [ESR2] | – | – | 2.95 ± 0.85 | 2.56 ± 0.7
LAIKKQQHIDNITQIEDATEKLKA [TRIM14] | 4.41 ± 0.27 | 4.38 ± 0.21 | – | –
LAQIAEVLEMFDLRMMVENIMNKE [RHOBTB1] | 2.54 ± 0.35 | 2.22 ± 0.12 | – | –
LASAYTGRLSMAAADIVNFLTVGS [ZBTB22] | 2.77 ± 0.28 | 3.09 ± 0.66 | – | –
LAYGSVITVKNLRMAIGYLHSHRH [POMT2] | 2.53 ± 0.69 | 2.63 ± 0.65 | – | –
LCKVLGVLFSVAGGLFVGKEGPMI [CLCN6] | 2.73 ± 0.25 | 2.89 ± 0.5 | – | –
LCRAQRERLASANLRVLVDCILRD [TEKT4] | 2.08 ± 0.58 | 2.41 ± 0.21 | – | –
LCSDLEEAPEAELSQAPAEGPDLV [HES6] | 5.61 ± 0.12 | 5.57 ± 0.3 | – | –
LDDIYYFGGQNAHNQIAIYAHQPR [FUT8] | 2.87 ± 0.41 | 2.92 ± 0.39 | – | –
LDFLPKDVKKEKLSPDIMKDAYVQ [TENT5D] | 3.96 ± 0.14 | 3.78 ± 0.26 | – | –
LDKELRAMLREKFPEFCSSPSPPV [INTS3] | 3.22 ± 0.31 | 3.42 ± 0.31 | – | –
LDLMKEWIAHSEKLPRKVLQHVSE [SPACA9] | 3 ± 0.36 | 3.67 ± 0.47 | – | –
LDPQPITDEEEGLIWVVGPVLAVV [PTPRD] | 2.02 ± 0.41 | 2.42 ± 0.27 | – | –
LDRFLSLEPVKKSRLQLLGATCMF [CCND1] | 2.42 ± 0.36 | 2.39 ± 0.14 | – | –
LEFLLALYFLFADAMQLNDKWQGL [CMTM3] | 2.77 ± 0.45 | 2.8 ± 0.93 | – | –
LEGALHQAKEELARMLREYQELMS [KRT71] | 2.98 ± 0.3 | 3.48 ± 0.46 | – | –
LEKKNEALKERADSLAKEIQYLKD [ATF4] | 4.53 ± 0.24 | 4.45 ± 0.056 | – | –
LEKNHPEEFCEFVKSNTEQMREAF [ZBED1] | 4.58 ± 0.13 | 4.63 ± 0.16 | – | –
LELPEDEEEKKKMEESKAKFENLC [HSP90AB1] | 5.46 ± 0.42 | 5.3 ± 0.33 | – | –
